Experiments:
human PD-L1 (human) [1] = target: human PD-L1 (human) (UniProt Q9NZQ7); assay: flow cytometry; PD-L1 MFI over CD28 MFI of the same protein
CD28 (human) [2] = target: CD28 (human) (UniProt P10747); assay: flow cytometry, Jurkat cells (CD28); vs WT CD80 ECD-Fc (Abcam)
CD28 (human) [3] = target: CD28 (human) (UniProt P10747); assay: flow cytometry, Jurkat/IL2 reporter cells (CD28)
human PD-L1 (human) [4] = target: human PD-L1 (human) (UniProt Q9NZQ7); assay: flow cytometry, CHO/huPD-L1 cells; vs WT CD80 ECD-Fc (Abcam)
human CTLA-4 (human) [5] = target: human CTLA-4 (human) (UniProt P16410); assay: flow cytometry, CHO cells expressing huCTLA-4
human CTLA-4 (human), sequence (P16410 36-223): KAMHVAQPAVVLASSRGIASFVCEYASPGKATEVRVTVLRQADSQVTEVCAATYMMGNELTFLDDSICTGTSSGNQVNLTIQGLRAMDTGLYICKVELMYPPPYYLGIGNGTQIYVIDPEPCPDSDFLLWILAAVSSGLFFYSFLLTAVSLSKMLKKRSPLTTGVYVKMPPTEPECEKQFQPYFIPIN

human CTLA-4 (human) [6] = target: human CTLA-4 (human) (UniProt P16410); assay: flow cytometry, CHO/huCTLA-4 cells; vs WT CD80 ECD-Fc (Abcam)
human PD-L1 (human) [7] = target: human PD-L1 (human) (UniProt Q9NZQ7); assay: flow cytometry, CHO cells expressing huPD-L1

human PD-L1 (human), sequence (Q9NZQ7 19-290): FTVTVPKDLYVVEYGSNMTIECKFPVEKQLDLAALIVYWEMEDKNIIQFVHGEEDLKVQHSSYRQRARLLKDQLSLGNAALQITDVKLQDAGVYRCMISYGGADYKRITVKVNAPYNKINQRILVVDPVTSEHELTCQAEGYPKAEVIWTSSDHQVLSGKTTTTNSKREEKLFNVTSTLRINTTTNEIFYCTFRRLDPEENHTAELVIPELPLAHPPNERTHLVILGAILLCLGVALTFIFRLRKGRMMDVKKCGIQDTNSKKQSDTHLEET

Binder | Ratio of PDL1:CD28 (human PD-L1 (human) [1]) | Fold change to WT CD80 (CD28 (human) [2]) | MFI at 33.3 nM (CD28 (human) [3]) | Fold change to WT CD80 (human PD-L1 (human) [4]) | MFI at 33.3 nM (human CTLA-4 (human) [5]) | Fold change to WT CD80 (human CTLA-4 (human) [6]) | MFI at 33.3 nM (human PD-L1 (human) [7])
variant CD80 IgV-Fc D46V/M47L/V68M (Fc fusion) VIHVTKEVKEVATLSCGHNVSVEELAQTRIYWQKEKKMVLTMMSGVLNIWPEYKNRTIFDITNNLSIMILALRPSDEGTYECVVLKYEKDAFKREHLAEVTLSVKAD | 12.8 | 3.1 fold | 2180 MFI | 219 fold | 34700 MFI | 0.9 fold | 28000 MFI
variant CD80 IgV-Fc E35D/D46V/M47L/L85Q (Fc fusion) VIHVTKEVKEVATLSCGHNVSVEELAQTRIYWQKDKKMVLTMMSGVLNIWPEYKNRTIFDITNNLSIVILALRPSDEGTYECVVQKYEKDAFKREHLAEVTLSVKAD | 28.1 | 0.4 fold | 268 MFI | 58.8 fold | 38200 MFI | 0.9 fold | 7520 MFI
variant CD80 IgV-Fc E35D/N48K/K89N (Fc fusion) VIHVTKEVKEVATLSCGHNVSVEELAQTRIYWQKDKKMVLTMMSGDMKIWPEYKNRTIFDITNNLSIVILALRPSDEGTYECVVLKYENDAFKREHLAEVTLSVKAD | 14 | 0.6 fold | 411 MFI | 45 fold | 34700 MFI | 0.9 fold | 5770 MFI
variant CD80 IgV-Fc E35D/M47L/V68M (Fc fusion) VIHVTKEVKEVATLSCGHNVSVEELAQTRIYWQKDKKMVLTMMSGDLNIWPEYKNRTIFDITNNLSIMILALRPSDEGTYECVVLKYEKDAFKREHLAEVTLSVKAD | 22.4 | 1.8 fold | 1240 MFI | 218 fold | 28600 MFI | 0.7 fold | 27900 MFI

Next, values leading:

Ratio of PDL1:CD28 (human PD-L1 (human) [1]) | Fold change to WT CD80 (CD28 (human) [2]) | MFI at 33.3 nM (CD28 (human) [3]) | Fold change to WT CD80 (human PD-L1 (human) [4]) | MFI at 33.3 nM (human CTLA-4 (human) [5]) | Fold change to WT CD80 (human CTLA-4 (human) [6]) | MFI at 33.3 nM (human PD-L1 (human) [7]) | Binder
16.8 | 0.2 fold | 131 MFI | 17.2 fold | 41900 MFI | 1 fold | 2200 MFI | variant CD80 IgV-Fc D46V/L85Q (Fc fusion) VIHVTKEVKEVATLSCGHNVSVEELAQTRIYWQKEKKMVLTMMSGVMNIWPEYKNRTIFDITNNLSIVILALRPSDEGTYECVVQKYEKDAFKREHLAEVTLSVKAD
78.4 | 0.1 fold | 76.2 MFI | 46.6 fold | 42800 MFI | 1.1 fold | 5970 MFI | variant CD80 IgV-Fc E35D/V68M/L85Q (Fc fusion) VIHVTKEVKEVATLSCGHNVSVEELAQTRIYWQKDKKMVLTMMSGDMNIWPEYKNRTIFDITNNLSIMILALRPSDEGTYECVVQKYEKDAFKREHLAEVTLSVKAD
61.2 | 0.7 fold | 464 MFI | 222 fold | 26200 MFI | 0.6 fold | 28400 MFI | variant CD80 IgV-Fc E35D/D46V/M47L/V68M/L85Q (Fc fusion) VIHVTKEVKEVATLSCGHNVSVEELAQTRIYWQKDKKMVLTMMSGVLNIWPEYKNRTIFDITNNLSIMILALRPSDEGTYECVVQKYEKDAFKREHLAEVTLSVKAD
33.7 | 0.3 fold | 194 MFI | 51.1 fold | 41300 MFI | 1 fold | 6540 MFI | variant CD80 IgV-Fc E35D/N48K (Fc fusion) VIHVTKEVKEVATLSCGHNVSVEELAQTRIYWQKDKKMVLTMMSGDMKIWPEYKNRTIFDITNNLSIVILALRPSDEGTYECVVLKYEKDAFKREHLAEVTLSVKAD

— patent US20220177587A1, “METHODS AND USES OF VARIANT CD80 FUSION PROTEINS AND RELATED CONSTRUCTS” (Alpine Immune Sciences, Inc., priority 2018, published 2022)
